The text below walks through data of patent publication US20230219996A1.

The target of test [1] is SARS-CoV-2 spike (Wuhan, wild-type) (SARS-CoV-2) (UniProt P0DTC2). Description: MSD V-PLEX ACE2 kit, sVNT, positive control; competitor ACE2 (NHP study).
Test [2] shares this target. The experiment in a line: MSD V-PLEX ACE2 kit, sVNT, positive control; competitor ACE2 (mouse study).

For “ACE2 Calibration Reagent (included in the MSD kit)”, the ACE2-binding percent inhibition in test [1] and in test [2] was 100% in each case.
